According to patent US11529390B2, “PCSK9 inhibitory polypolypeptides and methods of use” (INSTITUT DE CARDIOLOGIE DE MONTREAL, priority 2015, dated 2022):
Like-named read-outs stand apart in the source and are kept apart here.

B1: SEQ ID. NO. 64: alanine-scanning mutant of GRP94-ΔKDEL, CBD region YAASAAAAAIMKAQAYQTGKDISTNYY (SEQ ID. NO. 78) (protein, listed as Homo Sapiens)
chain: MRALWVLGLCCVLLTFGSVRADDEVDVDGTVEEDLGKSREGSRTDDEVVQREEEAIQLDGLNASQIRELREKSEKFAFQAEVNRMMKLIINSLYKNKEIFLRELISNASDALDKIRLISLTDENALSGNEELTVKIKCDKEKNLLHVTDTGVGMTREELVKNLGTIAKSGTSEFLNKMTEAQEDGQSTSELIGQFGVGFYSAFLVADKVIVTSKHNNDTQHIWESDSNEFSVIADPRGNTLGRGTTITLVLKEEASDYLELDTIKNLVKKYSQFINFPIYVWSSKTETVEEPMEEEEAAKEEKEESDDEAAVEEEEEEKKPKTKKVEKTVWDWELMNDIKPIWQRPSKEVEEDEYKAFYKSFSKESDDPMAYIHFTAEGEVTFKSILFVPTSAPRGLFDEYGSKKSDYIKLYVRRVFITDDFHDMMPKYLNFVKGVVDSDDLPLNVSRETLQQHKLLKVIRKKLVRKTLDMIKKIADDKYNDTFWKEFGTNIKLGVIEDHSNRTRLAKLLRFQSSHHPTDITSLDQYVERMKEKQDKIYFMAGSSRKEAESSPFVERLLKKGYEVIYLTEPVDEYCIQALPEFDGKRFQNVAKEGVKFDESEKTKESREAVEKEFEPLLNWMKDKALKDKIEKAVVSQRLTESPCALVASQYAASAAAAAIMKAQAYQTGKDISTNYYASQKKTFEINPRHPLIRDMLRRIKEDEDDKTVLDLAVVLFETATLRSGYLLPDTKAYGDRIERMLRLSLNIDPDAKVEEEPEEEPEETAEDTTEDTEQDEDEEMDVGTDEEEETAKESTAEYPYDVPDYA
B2: SEQ ID. NO. 7: polypeptide of the invention; in b217 apparently the truncated CBD-CT form of GRP94 (protein)
chain: MRALWVLGLCCVLLTFGSVRAYGWSGNMERIMKAQAYQTGKDISTNYYASQKKTFEINPRHPLIRDMLRRIKEDEDDKTVLDLAVVLFETATLRSGYLLPDTKAYGDRIERMLRLSLNIDPDAKVEEEPEEEPEETAEDTTEDTEQDEDEEMDVGTDEEEETAKESTAE
B3: SEQ ID. NO. 46: secretable HA-tagged GRP94 signal polypeptide, client-binding domain and C-terminal domain lacking KDEL (CBD-CT) (protein)
chain: MRALWVLGLCCVLLTFGSVRAYGWSGNMERIMKAQAYQTGKDISTNYYASQKKTFEINPRHPLIRDMLRRIKEDEDDKTVLDLAVVLFETATLRSGYLLPDTKAYGDRIERMLRLSLNIDPDAKVEEEPEEEPEETAEDTTEDTEQDEDEEMDVGTDEEEETAKESTAEYPYDVPDYA
B4: SEQ ID. NO. 65: alanine-scanning mutant of GRP94-ΔKDEL, CBD region YGWSGNMERIMKAQAYATGKAISTNAA (SEQ ID. NO. 79) (protein, listed as Homo Sapiens)
chain: MRALWVLGLCCVLLTFGSVRADDEVDVDGTVEEDLGKSREGSRTDDEVVQREEEAIQLDGLNASQIRELREKSEKFAFQAEVNRMMKLIINSLYKNKEIFLRELISNASDALDKIRLISLTDENALSGNEELTVKIKCDKEKNLLHVTDTGVGMTREELVKNLGTIAKSGTSEFLNKMTEAQEDGQSTSELIGQFGVGFYSAFLVADKVIVTSKHNNDTQHIWESDSNEFSVIADPRGNTLGRGTTITLVLKEEASDYLELDTIKNLVKKYSQFINFPIYVWSSKTETVEEPMEEEEAAKEEKEESDDEAAVEEEEEEKKPKTKKVEKTVWDWELMNDIKPIWQRPSKEVEEDEYKAFYKSFSKESDDPMAYIHFTAEGEVTFKSILFVPTSAPRGLFDEYGSKKSDYIKLYVRRVFITDDFHDMMPKYLNFVKGVVDSDDLPLNVSRETLQQHKLLKVIRKKLVRKTLDMIKKIADDKYNDTFWKEFGTNIKLGVIEDHSNRTRLAKLLRFQSSHHPTDITSLDQYVERMKEKQDKIYFMAGSSRKEAESSPFVERLLKKGYEVIYLTEPVDEYCIQALPEFDGKRFQNVAKEGVKFDESEKTKESREAVEKEFEPLLNWMKDKALKDKIEKAVVSQRLTESPCALVASQYGWSGNMERIMKAQAYATGKAISTNAAASQKKTFEINPRHPLIRDMLRRIKEDEDDKTVLDLAVVLFETATLRSGYLLPDTKAYGDRIERMLRLSLNIDPDAKVEEEPEEEPEETAEDTTEDTEQDEDEEMDVGTDEEEETAKESTAEYPYDVPDYA

What was measured:
PCSK9-V5 = biological target: T1, PCSK9-V5 (Homo sapiens, UniProt Q8NBP7); test: Co-immunoprecipitation of GRP94 constructs with PCSK9-V5 in transfected HEK293 cells; assay type: binding
T1 construct: Full-length human V5-tagged PCSK9 and LDLR were subcloned into pIRES2-EGFP; expressed in transfected cells; host or cells: HEK293
T1 sequence (Q8NBP7 153-692): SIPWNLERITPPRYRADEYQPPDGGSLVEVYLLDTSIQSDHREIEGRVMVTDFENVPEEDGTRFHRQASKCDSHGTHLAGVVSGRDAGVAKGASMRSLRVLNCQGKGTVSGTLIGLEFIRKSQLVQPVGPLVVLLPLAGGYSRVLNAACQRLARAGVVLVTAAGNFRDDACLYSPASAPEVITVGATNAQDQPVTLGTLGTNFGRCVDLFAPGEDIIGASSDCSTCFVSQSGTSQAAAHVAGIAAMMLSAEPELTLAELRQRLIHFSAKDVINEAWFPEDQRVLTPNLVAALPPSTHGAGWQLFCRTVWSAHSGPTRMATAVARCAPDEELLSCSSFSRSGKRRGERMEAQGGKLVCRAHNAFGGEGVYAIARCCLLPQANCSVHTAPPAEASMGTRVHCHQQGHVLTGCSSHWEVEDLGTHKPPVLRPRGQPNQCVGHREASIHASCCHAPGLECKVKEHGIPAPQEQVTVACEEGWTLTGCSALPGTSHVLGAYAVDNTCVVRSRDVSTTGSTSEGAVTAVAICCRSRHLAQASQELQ
Experimental: FIG. 2: Mapping of the PCSK9-GRP94 interacting domain. (a-b) HEK293 cells were transfected without (−) or with (+) PCSK9-V5 or SEQ ID NO. 66, 64 or 65. A PCSK9 V5 epitope-tag fusion protein (PCSK9-V5) was immune-precipitated from cell lysates using mAb-V5 antibody (IP: V5) and immune-blotted as indicated. Total GRP94 (SEQ. ID. NO. 3) and PCSK9 (SEQ. ID. NO. 1) protein levels were analyzed by immune-blotting in cell lysates (input) and conditioned media. (c) Left panel; HEK293 cells were transfected without (−) or with (+) PCSK9-V5, SEQ. ID. NO. 66 or 46. PCSK9-V5 was immune-precipitated for cell lysates (IP: V5) and immune-blotted (IB) as indicated. Total GRP94 and PCSK9 protein levels were also analyzed by immune-blotting and herein used as a control (input). Right panel; GRP94 homodimer (gray and yellow) crystal structure was determined from PDB file #2O1V using MacPymol software. […] 6 in which critical residues for PCSK9 binding determined in (b) are indicated in blue for SEQ. ID. NO. 64 and red for SEQ. ID. NO. 65. Data are representative of at least three independent experiments.
For identification of novel PCSK9 interactors, HepG2 or Huh-7 cells (55 cm2) were washed three times in phosphate-buffered saline (PBS) and incubated with 1 mM dithiobis[succinimidylpropionate] (DSP; Cat. #22585, Thermo Scientific), a thiol-cleavable cross-linking reagent, for 30 min at room temperature and subsequently switch for 15 min into a stop solution (15 mM Tris, pH 7.5). Cells were then lysed in complete radio-immune precipitation assay (RIPA) buffer (50 mM Tris/HCl, pH 8.0, 1% (v/v) Nonidet P40, 0.5% sodium deoxycholate, 150 mM NaCl and 0.1% (v/v) sodium dodecyl sulfate (SDS)) supplemented with a complete protease inhibitor mixture (Cat. #11 697 498 001, Roche Applied Science), passed 25 times through a 22-gauge needle and centrifuged at 11,000 g for 15 min at 4° C. Supernatants were incubated and rotated overnight with pre-immune serum, rabbit anti-hPCSK9 (amino acids 31-454) (1:250; Dr. Nabil Seidah, Clinical Research Institute of Montreal) or mouse anti-V5-tag (1:500; Cat. #R96025, Life Technologies) together with 50 μl protein A/G PLUS-agarose (Cat. #sc-2003, Santa Cruz). Following overnight incubation, beads were washed six times in RIPA buffer and resuspended in 75 μl Laemmli sample buffer. Co-immunoprecipitated (Co-IP) proteins were separated by 8% SDS-polyacrylamide gel electrophoresis and visualized using the Pierce silver stain kit (Cat. #24600, Thermo Scientific) according the manufacturer's instructions. All other Co-IP experiments were performed as described without the cross-linking step and in SDS-deprived RIPA buffer. HA-tagged proteins and GRP94 were immunoprecipitated with mouse anti-HA-tag (1:500; Cat. #H3663, Sigma-Aldrich) or rat anti-Grp94 (9G10, 1:1000; Cat. #ADI-SPA-850, Enzo Life Sciences).
We next decided to map GRP94 domain(s) important for PCSK9 protein-protein interaction. The overall domain structure of GRP94 includes a signal polypeptide (amino acids; aa1-21) followed by a N-terminal enzymatic ATP-binding domain (aa22-651), client-binding domain (CBD; aa652-678), C-terminal dimerization domain (aa679-799) and a KDEL polypeptide sequence (aa800-803) allowing retention of GRP94 in the endoplasmic reticulum. (Dollins et al., 2007; Maki et al., 1990; Wu et al., 2012) Thus, we first generated cDNA constructs encoding secretable HA-tagged forms of human GRP94 lacking its C-terminal KDEL polypeptide (SEQ ID. NO. 66; FIG. 2). HEK293 cells were transfected without or with SEQ ID. NO. 66 in absence or presence of PCSK9-V5 (FIG. 2a). […] NO. 66 is well expressed (Input; IB: HA) and secreted into media and that SEQ ID. NO. […] It was reported that a 27 aa C-terminal hydrophobic loop structure within GRP94 client-binding domain (CBD, amino acids aa652-678; ^652[…], SEQ ID. NO. 4) was important for folding and interaction with Toll-like receptors and integrins. (Wu et al., 2012) Deletion or alanine-scan mutations in SEQ ID. […]

[1] = test system: LDLR degradation induced by overexpression of PCSK9; test: LDLR degradation after co-expression with PCSK9-V5 (intracellular pathway), immunoblot; assay type: cell-based, human
Experimental: FIG. 7: SEQ ID NO. 6 prevents PCSK9-induced LDLR degradation. (a) Left; Coomassie staining of purified recombinant SEQ ID NO. 6 and PCSK9 separated by SDS-PAGE is shown. Right; HepG2 cells were incubated in DMEM without or with 0, 25, 100 or 250 nM SEQ ID NO. 6 alone or in presence of recombinant PCSK9. (b) HepG2 cells were transfected without (−) or with PCSK9-V5 in absence (−) or presence SEQ ID NO. 66 or SEQ ID NO. 46. Total LDLR, PCSK9, SEQ ID NO. 66, SEQ ID NO. 46 and β-actin protein levels were analyzed by immunoblotting in cell lysates and conditioned media as indicated. Data are representative of at least three independent experiments.
We next tested whether SEQ ID. NO. 6 could alter the capacity of PCSK9 to induce LDLR degradation. HepG2 cells were incubated overnight with an increasing amount of recombinant SEQ ID. NO. 6 in absence or presence of exogenous PCSK9 (FIG. 7a). […] NO. […] Although that SEQ ID. NO. […] NO. […] (Poirier et al., 2009) As PCSK9 was also shown to induce LDLR degradation via an intracellular pathway, (Poirier et al., 2009) we evaluated to ability of SEQ ID. NO. 66 or SEQ ID. NO. 46 to neutralize PCSK9 in HepG2 cells following co-expression (FIG. 7b). Similar to the extracellular pathway (FIGS. 5b and 7a), both SEQ ID. NO. 66 and SEQ ID. NO. […] NO. 66 and specifically SEQ ID. NO. […]

Row | Molecule | Interaction (binding) with PCSK9 by co-immunoprecipitation (PCSK9-V5) | Interaction (binding) with PCSK9 by co-immunoprecipitation (PCSK9-V5; listed as AA1) | Block of LDLR degradation induced by overexpression of PCSK9 [1] | Interaction (binding) with PCSK9 by co-immunoprecipitation (PCSK9-V5; listed as AA2)
1 | B1 | abrogate binding to PCSK9 | abolished PCSK9 binding |  | 
2 | B2 | significantly enhanced |  |  | 
3 | B3 |  |  | significantly block | 
4 | B4 | abrogate binding to PCSK9 |  |  | abolished PCSK9 binding
